Biological target: T1, Cynomolgus CD39 expressed on HEK cells (cynomolgus, UniProt A0A7N9DGH8 1-510)
T1 construct: whole, on cells; also called cynoCD39; cynomolgus vascular CD39
T1 sequence: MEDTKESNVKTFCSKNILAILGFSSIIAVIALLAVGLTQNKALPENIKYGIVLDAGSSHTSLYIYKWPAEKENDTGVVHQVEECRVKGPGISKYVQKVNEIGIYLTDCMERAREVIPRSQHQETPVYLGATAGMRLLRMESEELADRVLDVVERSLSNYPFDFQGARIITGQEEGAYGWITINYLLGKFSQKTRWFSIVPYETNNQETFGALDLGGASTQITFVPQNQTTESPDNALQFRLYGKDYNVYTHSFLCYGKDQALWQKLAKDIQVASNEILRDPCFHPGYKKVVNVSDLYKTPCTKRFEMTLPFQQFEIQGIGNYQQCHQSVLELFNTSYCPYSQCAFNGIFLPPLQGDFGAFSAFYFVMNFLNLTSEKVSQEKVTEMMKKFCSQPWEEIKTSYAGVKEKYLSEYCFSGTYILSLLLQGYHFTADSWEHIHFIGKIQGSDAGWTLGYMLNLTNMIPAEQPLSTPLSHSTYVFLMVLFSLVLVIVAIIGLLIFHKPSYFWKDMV
Experiment: flow cytometry on HEK cells expressing cynomolgus CD39, antibody 99 nM to 0.045 nM (FIG. 1 legend says ELISA)
Description: Briefly, 1×10⁵ HEK-huCD39or cynoCD39 cells were incubated with various concentration of unlabeled anti-CD39 antibody or isotype control (IC) from 99 nM to 0.045 nM, for 30 minutes at 4° C. After washes, cells were incubated with Goat anti-mouse H+L labeled secondary antibody for 30 min at 4° C.

EC50: 10.6 nM
B1: Antibody I-391, Fc silent recombinant chimeric human IgG1 with heavy chain N297Q mutation (antibody, V domains shown)
VH: QIQLVQSGPELKKPGETVKISCKASGYTFRNYGMNWVKQAPGKGLKWMGWINTYTGEPTYADDFKGRFAFSLATSASTAYLQISNLKNEDTATYFCARKAYYGSNYYFDYWGQGTTLTVSS
VL: DIVMTQSHKFMSTSVGDRVSITCKASQDVSTAVAWYQQKPGQSPKLLIYSASYRYTGVPDRFTGSGSGTDFTFTISTVQAEDLAVYYCQQHYTTPPYTFGGGTKLEIKR
